Biological target: polypeptide N52 simulating a target sequence (SARS-CoV-2, N-terminal acetyl (Ac); C-terminal amide (NH2))

B1: lipopeptide IPB24 (peptide)
peptide: SVVNIQKEIDRLNEVAKNLNESLIDLQELGKYEQYIKK
modifications: N-terminal acetyl (Ac); flexible linker PEG4 (from Fmoc-NH-PEG4-CH2CH2COOH) between the antiviral polypeptide sequence and the C-terminal K; cholesteryl hemisuccinate on the C-terminal K; C-terminal amide (NH2)
Tm of the complex: 90 °C

— patent publication US20240425618A1 (YOUCARE PHARMACEUTICAL GROUP, published 2024)
